US20240018252A1 (Pfizer, published 2024)

T1: human BCMA (human, UniProt Q02223 1-54)
T1 construct: also called huBCMA; hBCMA
T1 sequence: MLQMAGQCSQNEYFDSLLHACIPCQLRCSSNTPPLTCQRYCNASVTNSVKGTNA


Key:
cyBCMA [1] = target: T2, cyBCMA (cynomolgus, UniProt A0A2K5UD97 1-53); test: SPR, immobilised IgG, 37° C
T2 construct: Soluble analyte in SPR; construct not described; also called cyno BCMA

human BCMA [2] = target: T1, human BCMA; test: SPR, immobilised IgG, 37° C
cyBCMA [3] = target: T2, cyBCMA; test: SPR, immobilised IgG, 25° C
human BCMA [4] = target: T1, human BCMA; test: SPR, immobilised IgG, 25° C

T2 sequence (A0A2K5UD97 entry or part of it): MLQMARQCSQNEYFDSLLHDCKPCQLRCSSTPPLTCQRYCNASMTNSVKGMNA

Row | Binder | T½ (cyBCMA [1]) [min] | T½ (human BCMA [2]) [min] | T½ (cyBCMA [3]) [min] | T½ (human BCMA [4]) [min]
1 | L3.PY/P6E01 (antibody, V domains shown, IgG in the assay) VH: EVQLLESGGGLVQPGGSLRLSCAASGFTFGSYAMTWVRQAPGKGLEWVSAISGSGGNTFYADSVKGRFTISRDNSKNTLYLQMNSLRAEDTAVYYCARVSPIASGMDYWGQGTLVTVSS VL: EIVLTQSPGTLSLSPGERATLSCRASQSVSSSYLAWYQQKPGQAPRLLIYGASSRATGIPDRFSGSGSGTDFTLTISRLEPEDFAVYYCQHYPYPPSFTFGQGTKVEIK | 0.88 | 5.91 | 3.9 | 50.7
2 | L1.LGF/L3.PY/H3.AQ (antibody, V domains shown, IgG in the assay) VH: EVQLLESGGGLVQPGGSLRLSCAASGFTFGSYAMTWVRQAPGKGLEWVSAISGSGGNTFYADSVKGRFTISRDNSKNTLYLQMNSLRAEDTAVYYCARVSPIAAQMDYWGQGTLVTVSS VL: EIVLTQSPGTLSLSPGERATLSCRASQSLGSFYLAWYQQKPGQAPRLLIYGASSRATGIPDRFSGSGSGTDFTLTISRLEPEDFAVYYCQHYPYPPSFTFGQGTKVEIK |  |  | 2.4 | 13
3 | L1.LGF/L3.NY/H3.AL (antibody, V domains shown, IgG in the assay) VH: EVQLLESGGGLVQPGGSLRLSCAASGFTFGSYAMTWVRQAPGKGLEWVSAISGSGGNTFYADSVKGRFTISRDNSKNTLYLQMNSLRAEDTAVYYCARVSPIAALMDYWGQGTLVTVSS VL: EIVLTQSPGTLSLSPGERATLSCRASQSLGSFYLAWYQQKPGQAPRLLIYGASSRATGIPDRFSGSGSGTDFTLTISRLEPEDFAVYYCQHYNYPPSFTFGQGTKVEIK |  |  | 0.8 | 11.9
4 | L1.LGF/L3.KW/H3.AQ (antibody, V domains shown, IgG in the assay) VH: EVQLLESGGGLVQPGGSLRLSCAASGFTFGSYAMTWVRQAPGKGLEWVSAISGSGGNTFYADSVKGRFTISRDNSKNTLYLQMNSLRAEDTAVYYCARVSPIAAQMDYWGQGTLVTVSS VL: EIVLTQSPGTLSLSPGERATLSCRASQSLGSFYLAWYQQKPGQAPRLLIYGASSRATGIPDRFSGSGSGTDFTLTISRLEPEDFAVYYCKHYGWPPSFTFGQGTKVEIK |  |  | 3.3 | 12.1
5 | L1.LGF/L3.NY/H3.AP (antibody, V domains shown, IgG in the assay) VH: EVQLLESGGGLVQPGGSLRLSCAASGFTFGSYAMTWVRQAPGKGLEWVSAISGSGGNTFYADSVKGRFTISRDNSKNTLYLQMNSLRAEDTAVYYCARVSPIAAPMDYWGQGTLVTVSS VL: EIVLTQSPGTLSLSPGERATLSCRASQSLGSFYLAWYQQKPGQAPRLLIYGASSRATGIPDRFSGSGSGTDFTLTISRLEPEDFAVYYCQHYNYPPSFTFGQGTKVEIK |  |  | 2.1 | 21.7
6 | L1.GDF/L3.PY/H3.AQ (antibody, V domains shown, IgG in the assay) VH: EVQLLESGGGLVQPGGSLRLSCAASGFTFGSYAMTWVRQAPGKGLEWVSAISGSGGNTFYADSVKGRFTISRDNSKNTLYLQMNSLRAEDTAVYYCARVSPIAAQMDYWGQGTLVTVSS VL: EIVLTQSPGTLSLSPGERATLSCRASQSVGDFYLAWYQQKPGQAPRLLIYGASSRATGIPDRFSGSGSGTDFTLTISRLEPEDFAVYYCQHYPYPPSFTFGQGTKVEIK |  |  | 0.7 | 0.86
7 | L1.LGF/L3.PY/H3.AP (antibody, V domains shown, IgG in the assay) VH: EVQLLESGGGLVQPGGSLRLSCAASGFTFGSYAMTWVRQAPGKGLEWVSAISGSGGNTFYADSVKGRFTISRDNSKNTLYLQMNSLRAEDTAVYYCARVSPIAAPMDYWGQGTLVTVSS VL: EIVLTQSPGTLSLSPGERATLSCRASQSLGSFYLAWYQQKPGQAPRLLIYGASSRATGIPDRFSGSGSGTDFTLTISRLEPEDFAVYYCQHYPYPPSFTFGQGTKVEIK |  |  | 0.9 | 11.9
8 | L1.LGF/L3.KW/P6E01 (antibody, V domains shown, IgG in the assay) VH: EVQLLESGGGLVQPGGSLRLSCAASGFTFGSYAMTWVRQAPGKGLEWVSAISGSGGNTFYADSVKGRFTISRDNSKNTLYLQMNSLRAEDTAVYYCARVSPIASGMDYWGQGTLVTVSS VL: EIVLTQSPGTLSLSPGERATLSCRASQSLGSFYLAWYQQKPGQAPRLLIYGASSRATGIPDRFSGSGSGTDFTLTISRLEPEDFAVYYCKHYGWPPSFTFGQGTKVEIK |  |  | 0.6 | 1.53
9 | L1.LGF/L3.KW/H3.AL (antibody, V domains shown, IgG in the assay) VH: EVQLLESGGGLVQPGGSLRLSCAASGFTFGSYAMTWVRQAPGKGLEWVSAISGSGGNTFYADSVKGRFTISRDNSKNTLYLQMNSLRAEDTAVYYCARVSPIAALMDYWGQGTLVTVSS VL: EIVLTQSPGTLSLSPGERATLSCRASQSLGSFYLAWYQQKPGQAPRLLIYGASSRATGIPDRFSGSGSGTDFTLTISRLEPEDFAVYYCKHYGWPPSFTFGQGTKVEIK |  |  | 1 | 9.4
10 | L3.NY/P6E01 (antibody, V domains shown, IgG in the assay) VH: EVQLLESGGGLVQPGGSLRLSCAASGFTFGSYAMTWVRQAPGKGLEWVSAISGSGGNTFYADSVKGRFTISRDNSKNTLYLQMNSLRAEDTAVYYCARVSPIASGMDYWGQGTLVTVSS VL: EIVLTQSPGTLSLSPGERATLSCRASQSVSSSYLAWYQQKPGQAPRLLIYGASSRATGIPDRFSGSGSGTDFTLTISRLEPEDFAVYYCQHYNYPPSFTFGQGTKVEIK |  |  | 4 | 30.1
11 | L1.LGF/L3.NY/P6E01 (antibody, V domains shown, IgG in the assay) VH: EVQLLESGGGLVQPGGSLRLSCAASGFTFGSYAMTWVRQAPGKGLEWVSAISGSGGNTFYADSVKGRFTISRDNSKNTLYLQMNSLRAEDTAVYYCARVSPIASGMDYWGQGTLVTVSS VL: EIVLTQSPGTLSLSPGERATLSCRASQSLGSFYLAWYQQKPGQAPRLLIYGASSRATGIPDRFSGSGSGTDFTLTISRLEPEDFAVYYCQHYNYPPSFTFGQGTKVEIK |  |  | 1.1 | 2.63
12 | L1.LGF/L3.NY/H3.AQ (antibody, V domains shown, IgG in the assay) VH: EVQLLESGGGLVQPGGSLRLSCAASGFTFGSYAMTWVRQAPGKGLEWVSAISGSGGNTFYADSVKGRFTISRDNSKNTLYLQMNSLRAEDTAVYYCARVSPIAAQMDYWGQGTLVTVSS VL: EIVLTQSPGTLSLSPGERATLSCRASQSLGSFYLAWYQQKPGQAPRLLIYGASSRATGIPDRFSGSGSGTDFTLTISRLEPEDFAVYYCQHYNYPPSFTFGQGTKVEIK |  |  | 7.8 | 38.6
13 | L1.GDF/L3.NY/H3.AQ (antibody, V domains shown, IgG in the assay) VH: EVQLLESGGGLVQPGGSLRLSCAASGFTFGSYAMTWVRQAPGKGLEWVSAISGSGGNTFYADSVKGRFTISRDNSKNTLYLQMNSLRAEDTAVYYCARVSPIAAQMDYWGQGTLVTVSS VL: EIVLTQSPGTLSLSPGERATLSCRASQSVGDFYLAWYQQKPGQAPRLLIYGASSRATGIPDRFSGSGSGTDFTLTISRLEPEDFAVYYCQHYNYPPSFTFGQGTKVEIK |  |  | 8.5 | 16
14 | L1.GDF/L3.NY/P6E01 (antibody, V domains shown, IgG in the assay) VH: EVQLLESGGGLVQPGGSLRLSCAASGFTFGSYAMTWVRQAPGKGLEWVSAISGSGGNTFYADSVKGRFTISRDNSKNTLYLQMNSLRAEDTAVYYCARVSPIASGMDYWGQGTLVTVSS VL: EIVLTQSPGTLSLSPGERATLSCRASQSVGDFYLAWYQQKPGQAPRLLIYGASSRATGIPDRFSGSGSGTDFTLTISRLEPEDFAVYYCQHYNYPPSFTFGQGTKVEIK |  |  | 1.5 | 1.95
15 | L1.LGF/L3.KW/H3.AP (antibody, V domains shown, IgG in the assay) VH: EVQLLESGGGLVQPGGSLRLSCAASGFTFGSYAMTWVRQAPGKGLEWVSAISGSGGNTFYADSVKGRFTISRDNSKNTLYLQMNSLRAEDTAVYYCARVSPIAAPMDYWGQGTLVTVSS VL: EIVLTQSPGTLSLSPGERATLSCRASQSLGSFYLAWYQQKPGQAPRLLIYGASSRATGIPDRFSGSGSGTDFTLTISRLEPEDFAVYYCKHYGWPPSFTFGQGTKVEIK |  |  | 0.7 | 5.1
16 | L3.KW/P6E01 (antibody, V domains shown, IgG in the assay) VH: EVQLLESGGGLVQPGGSLRLSCAASGFTFGSYAMTWVRQAPGKGLEWVSAISGSGGNTFYADSVKGRFTISRDNSKNTLYLQMNSLRAEDTAVYYCARVSPIASGMDYWGQGTLVTVSS VL: EIVLTQSPGTLSLSPGERATLSCRASQSVSSSYLAWYQQKPGQAPRLLIYGASSRATGIPDRFSGSGSGTDFTLTISRLEPEDFAVYYCKHYGWPPSFTFGQGTKVEIK |  |  | 4.5 | 36.7
17 | L1.GDF/L3.NY/H3.AL (antibody, V domains shown, IgG in the assay) VH: EVQLLESGGGLVQPGGSLRLSCAASGFTFGSYAMTWVRQAPGKGLEWVSAISGSGGNTFYADSVKGRFTISRDNSKNTLYLQMNSLRAEDTAVYYCARVSPIAALMDYWGQGTLVTVSS VL: EIVLTQSPGTLSLSPGERATLSCRASQSVGDFYLAWYQQKPGQAPRLLIYGASSRATGIPDRFSGSGSGTDFTLTISRLEPEDFAVYYCQHYNYPPSFTFGQGTKVEIK |  |  | 0.5 | 2.87
18 | L1.GDF/L3.NY/H3.AP (antibody, V domains shown, IgG in the assay) VH: EVQLLESGGGLVQPGGSLRLSCAASGFTFGSYAMTWVRQAPGKGLEWVSAISGSGGNTFYADSVKGRFTISRDNSKNTLYLQMNSLRAEDTAVYYCARVSPIAAPMDYWGQGTLVTVSS VL: EIVLTQSPGTLSLSPGERATLSCRASQSVGDFYLAWYQQKPGQAPRLLIYGASSRATGIPDRFSGSGSGTDFTLTISRLEPEDFAVYYCQHYNYPPSFTFGQGTKVEIK |  |  | 1.6 | 8.21
